Data as given in patent US20060229272A1 (published 2006).
No end group written: not given here.

Biological target: T1, HGPRBMY11 polypeptide (human G-protein coupled receptor, SEQ ID NO:2) (human, UniProt Q9NS75 17-346)
T1 construct: 330 amino acids; also called GPCR74; GPCR 81
T1 sequence: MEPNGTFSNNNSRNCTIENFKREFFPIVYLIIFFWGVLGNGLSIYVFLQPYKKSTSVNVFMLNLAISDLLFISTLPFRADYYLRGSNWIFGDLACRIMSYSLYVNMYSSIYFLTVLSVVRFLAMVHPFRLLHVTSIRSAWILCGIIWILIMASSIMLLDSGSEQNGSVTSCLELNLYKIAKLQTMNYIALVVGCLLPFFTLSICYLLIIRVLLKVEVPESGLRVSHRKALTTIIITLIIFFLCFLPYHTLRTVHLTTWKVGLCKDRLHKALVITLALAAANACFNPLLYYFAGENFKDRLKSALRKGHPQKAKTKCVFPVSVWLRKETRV
Assay: phage display panning of M13KE peptide libraries on CHO-K1 cells transfected with HGPRBMY11, after preadsorption on integrin and parental cells; bound phage eluted and sequenced
Procedure: On the day of panning, growth medium was discarded and cells were washed with 10 ml PBS by allowing the buffer to flow over the cells. The PBS was removed and 10 ml Tris-EDTA detaching buffer (Gibco Cat. # 13150-016; no trypsin) was added for 2 min. Plates were tapped and/or pipetted up and down to detach cells. This was done quickly to minimize the exposure of the cells to this reagent. Cells were pelleted by centrifugation at 3 K, and then washed with 20 ml PBS. Cells were resuspended cells in PBS with 2% milk blocking agent plus protease inhibitor (EDTA-free; Roche Cat. # 1 873 580). For each library, cell suspensions of ˜500 ul were used. Cells were blocked for 30-60 min with gentle rocking at room temperature. The integrin-coated wells were washed 3× in PBST, then blocked with 2% BSA in PBS for 30 min or more. To preadsorb against integrin, input phage was added to the integrin-coated wells, and incubated for 30 min or more.
At this stage, the blocked parental cells were divided into the required number of aliquots (500 ul aliquot/library). The phage supernatants were added from the integrin-preadsorption step. Preadsorption against the parental cells was carried out for 30 min or more with gentle rocking. […]
Standard procedures were used. […] Colonies were grown in liquid medium and analyzed by standard sequencing procedures.

B1: LFASSDWSSFPVLVF (SEQ ID NO:81) (peptide)
peptide: LFASSDWSSFPVLVF
modifications: also: displayed fused to phage coat protein, not free peptide
notes: In the assay it stood fused to the phage coat protein, not as a free peptide; The synthesis of free N-acetyl peptide amides is described only as a method; also called Peptide Modulator of HGPRBMY11
  binding result: binds

B2: THGFGHRVWSVPLRS (SEQ ID NO:96) (peptide)
peptide: THGFGHRVWSVPLRS
notes: In the assay it stood fused to the phage coat protein; also called Peptide Modulator of HGPRBMY11
  binding result: binds
